Where “and” joins values, the source holds several entries; their conditions need not be identical. Equal values may be shown once. One block for each molecule: values may come before it. Positions of bridges follow the written chain, without caps; N, C: chain ends. Non-standard residues stand in square brackets, D forms with d. 5‑nitrobenzoyl = N-terminal 5-nitrobenzoyl group, introduced by coupling 2-fluoro-5-nitrobenzoyl chloride; hSer = N[C@@H](CCO)C(=O)O
Columns and labels:
[1] = biological target: human TrkA expressed on transfected cells (4-3.6 cells; NIH3T3-TrkA cells) (human) (UniProt P04629); assay: FACScan, 4-3.6 cells, avidin-FITC
[2] = biological target: p75 NGF receptor on B104 rat neuroblastoma cells and 4-3.6 cells (rat) (UniProt P07174); assay: FACScan, B104 cells (p75+ TrkA-), avidin-FITC
[3] = biological target: human TrkA expressed on transfected cells (4-3.6 cells; NIH3T3-TrkA cells) (human) (UniProt P04629); assay: FACScan, 4-3.6 cells (p75+ TrkA+), avidin-FITC
[4] = tested on: embryonic rat DRG primary neuronal cultures; assay: Cell survival (MTT), primary DRG cultures; type: cell-based; conditions: 8 days;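 on % Protection: 100% equals survival with optimal NGF at 1 nM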
Procedure: Fetal rat DRG primary cultures were established from Sprague Dawley day 17 rat embryos. All ganglia were dissected and dissociated first enzymatically with trypsin and then mechanically. Dissociated cells were cultured (10^5 cells/well) in 96 well plates pre-coated with collagen, and grown for a total of 8 days in Neuro Basal Medium containing N2 supplement (GIBCO, Toronto), antibiotics, and L-glutamine. These DRG cultures are ˜85% TrkA-expressing and are heavily dependent on TrkA signals for survival.
Primary DRG cultures: After a total of 8 days of culture with the indicated test or control ligands, cell survival were studied using the 3(4,5-Dimethylthiazolyl-2)-2,5-diphenyl tetrazolium bromide colorimetric (MTT) assay, and by microscopic observation.
(§1) Cell lines: 5,000 cells/well in protein-free media (PFHM-II, GIBCO, Toronto) containing 0.2% bovine serum albumin (BSA) (Crystalline fraction V, Sigma, St. Louis, Mo.) were seeded in 96 well plates (Falcon, Mississauga, Ontario). The cultures were untreated, or treated with the indicated test or control ligands. Cell viability was quantitated using the MTT assay after 56-72 hours of culture. […] The OD of untreated cells were subtracted. The higher optical density of untreated primary cultures is likely due to cellular heterogeneity and to endogenous production of limiting amounts of growth factors.

septal neuronal cultures = assay: ChAT activity in septal neuronal cultures; type: cell-based, rat; conditions: day 8
Procedure: Cell cultures were established from the septal area of 17-day-old rat embryos. In brief, tissue was incubated in PBS containing trypsin and DNase. Tissue pieces then were mechanically dissociated. After centrifugation, the pellet was suspended in Leibovitz's L-15 medium. Cells were plated onto 96-multiwell NUNC dishes (10^5 cells/well) coated with poly-D-lysine (5 μg/ml). Pure cultures of septal neurons were treated 1 day after plating. Drugs, prepared in medium, were added directly to the cells without changing the initial medium. The incubation continued for 8 days, at which time ChAT activity was evaluated.
At day 8 of culture, the medium was aspirated, and ice-cold lysis buffer (10 mM sodium phosphate, pH 7.4/0.1% TritonX-100—Trade-mark) was added. ChAT activity assays were performed directly in the wells using Fonnum's method (Fonnum, 1975).

[5] = biological target: T1, NIH3T3 fibroblasts expressing TrkC (Homo sapiens, UniProt Q16288); assay: Cell survival (MTT), NIH-TrkC; type: cell-based; conditions: 72 hours
T1 construct: expressed in transfected cells; host or cells: NIH3T3 fibroblasts
Text: (§2) The 4-3.6 cells are B104 cells stably transfected with human trkA cDNA, and express equal levels of p75 and TrkA (TrkA+ p75+). For screening agents that activate or antagonize TrkC receptors, NIH3T3 fibroblasts were stably transfected with human TrkC cDNA. These cells respond to the ligand NT-3. For screening agents that activate or antagonize TrkA receptors, NIH3T3 fibroblasts were stably transfected with human TrkA cDNA. These cells respond to the ligand NGF.
as §1

[6] = tested on: wild type NIH3T3 fibroblasts; assay: Cell survival (MTT), NIH wt; type: cell-based; conditions: 72 hours
Text: as §2, §1

B104 cells = assay: Cell survival control, B104 cells; type: cell-based, rat
Text: as §2, §1

wild type HEK293 cells = assay: Cell survival control, wild type HEK293 cells; type: cell-based
Procedure: as §1

[7] = tested on: TrkB-expressing HEK293 cells; assay: Cell survival control, TrkB-expressing HEK293 cells; type: cell-based
Procedure: as §1

[8] = Proteolytic stability, then trophic assay on 4-3.6 cells; conditions: exposure to trypsin or pepsin (D3: 1 hour)
Procedure: The proteolytic stability of D3 versus trypsin and papain was assessed. D3 was first exposed to enzymatic treatment as described previously (Saragovi et al., 1992), followed by gauging its biological activity on 4-3.6 cells.

[9] = biological target: human TrkA expressed on transfected cells (4-3.6 cells; NIH3T3-TrkA cells) (human) (UniProt P04629); assay: cell-based or functional assay
[10] = biological target: TrkA on primary rat embryonic neurons (DRG and septal cultures) (rat, UniProt P35739 33-799); assay: cell-based or functional assay
[11] = biological target: human TrkA expressed on transfected cells (4-3.6 cells; NIH3T3-TrkA cells) (human) (UniProt P04629); assay: FACScan competition, 4-3.6 cells, mAb 5C3 1 nM, competitor D3 1 µM
[12] = biological target: human TrkA expressed on transfected cells (4-3.6 cells; NIH3T3-TrkA cells) (human) (UniProt P04629); assay: FACScan competition, 4-3.6 cells, mAb 5C3 1 nM, competitor D3 5 µM
[13] = biological target: human TrkA expressed on transfected cells (4-3.6 cells; NIH3T3-TrkA cells) (human) (UniProt P04629); assay: estimated from FACScan competition against mAb 5C3 on 4-3.6 cells
[14] = biological target: human TrkA expressed on transfected cells (4-3.6 cells; NIH3T3-TrkA cells) (human) (UniProt P04629); assay: FACScan competition, 4-3.6 cells, mAb 5C3 1 nM, competitor D3 40 µM
[15] = biological target: human TrkA expressed on transfected cells (4-3.6 cells; NIH3T3-TrkA cells) (human) (UniProt P04629); assay: FACScan competition, 4-3.6 cells, mAb 5C3 1 nM, competitor D3 0.20 µM
[16] = biological target: p75 NGF receptor on B104 rat neuroblastoma cells and 4-3.6 cells (rat) (UniProt P07174); assay: FACScan competition, 4-3.6 cells, mAb MC192 1 nM, competitor D3 40 µM
[17] = biological target: recombinant baculovirus TrkA-extracellular domain protein (TrkA-ECD) (UniProt P04629); assay: calculated from competition ELISA against mAb 5C3 on immobilized TrkA-ECD
[18] = biological target: recombinant baculovirus TrkA-extracellular domain protein (TrkA-ECD) (UniProt P04629); assay: competition ELISA, mAb 5C3 2 nM on immobilized TrkA-ECD, competitor D3 1 µM
[19] = biological target: recombinant baculovirus TrkA-extracellular domain protein (TrkA-ECD) (UniProt P04629); assay: competition ELISA, mAb 5C3 2 nM on immobilized TrkA-ECD, competitor D3 5 µM
[20] = biological target: recombinant baculovirus TrkA-extracellular domain protein (TrkA-ECD) (UniProt P04629); assay: competition ELISA, mAb 5C3 2 nM on immobilized TrkA-ECD, competitor D3 20 µM
[21] = biological target: recombinant baculovirus TrkA-extracellular domain protein (TrkA-ECD) (UniProt P04629); assay: competition ELISA, mAb 5C3 2 nM on immobilized TrkA-ECD, competitor D3 40 µM
[22] = biological target: recombinant baculovirus TrkA-extracellular domain protein (TrkA-ECD) (UniProt P04629); assay: competition ELISA, mAb 5C3 2 nM on immobilized TrkA-ECD, competitor D3 0.2 µM
[23] = biological target: recombinant baculovirus TrkA-extracellular domain protein (TrkA-ECD) (UniProt P04629); assay: competition ELISA, mAb 5C3 2 nM on immobilized TrkA-ECD, competitor D3 0.05 µM
[24] = biological target: p75 NGF receptor on B104 rat neuroblastoma cells and 4-3.6 cells (rat) (UniProt P07174); assay: FACScan, B104 cells (p75+ TrkA-), D3-biotin 20 µM with 10-fold molar excess of D3, avidin-FITC
[25] = biological target: human TrkA expressed on transfected cells (4-3.6 cells; NIH3T3-TrkA cells) (human) (UniProt P04629); assay: FACScan, 4-3.6 cells (p75+ TrkA+), D3-biotin 20 µM with 10-fold molar excess of D3, avidin-FITC

p75 NGF receptor on B104 rat neuroblastoma cells and 4-3.6 cells (rat), sequence (P07174 30-425): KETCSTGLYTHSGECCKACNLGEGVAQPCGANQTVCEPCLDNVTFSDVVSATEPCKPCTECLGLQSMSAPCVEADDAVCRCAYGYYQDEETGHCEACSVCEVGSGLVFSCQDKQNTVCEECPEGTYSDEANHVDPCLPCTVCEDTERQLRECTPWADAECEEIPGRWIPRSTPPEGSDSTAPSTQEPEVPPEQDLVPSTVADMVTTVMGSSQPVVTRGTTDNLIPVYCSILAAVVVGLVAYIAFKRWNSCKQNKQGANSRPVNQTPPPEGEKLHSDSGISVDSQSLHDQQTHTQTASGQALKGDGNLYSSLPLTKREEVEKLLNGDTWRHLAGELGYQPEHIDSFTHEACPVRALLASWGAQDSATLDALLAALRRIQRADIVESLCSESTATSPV
recombinant baculovirus TrkA-extracellular domain protein (TrkA-ECD), sequence (P04629 33-423 limits assumed): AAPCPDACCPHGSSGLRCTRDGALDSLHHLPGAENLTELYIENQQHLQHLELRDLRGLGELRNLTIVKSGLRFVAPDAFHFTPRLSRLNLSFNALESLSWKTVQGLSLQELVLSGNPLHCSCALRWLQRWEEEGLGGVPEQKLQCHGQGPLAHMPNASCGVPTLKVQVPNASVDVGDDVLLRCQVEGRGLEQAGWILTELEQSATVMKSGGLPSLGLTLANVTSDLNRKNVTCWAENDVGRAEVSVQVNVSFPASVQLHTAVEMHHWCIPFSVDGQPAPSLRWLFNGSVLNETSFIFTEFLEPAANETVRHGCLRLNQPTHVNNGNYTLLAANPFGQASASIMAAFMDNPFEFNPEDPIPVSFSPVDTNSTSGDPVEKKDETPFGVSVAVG
human TrkA expressed on transfected cells (4-3.6 cells; NIH3T3-TrkA cells) (human), sequence (P04629 33-796): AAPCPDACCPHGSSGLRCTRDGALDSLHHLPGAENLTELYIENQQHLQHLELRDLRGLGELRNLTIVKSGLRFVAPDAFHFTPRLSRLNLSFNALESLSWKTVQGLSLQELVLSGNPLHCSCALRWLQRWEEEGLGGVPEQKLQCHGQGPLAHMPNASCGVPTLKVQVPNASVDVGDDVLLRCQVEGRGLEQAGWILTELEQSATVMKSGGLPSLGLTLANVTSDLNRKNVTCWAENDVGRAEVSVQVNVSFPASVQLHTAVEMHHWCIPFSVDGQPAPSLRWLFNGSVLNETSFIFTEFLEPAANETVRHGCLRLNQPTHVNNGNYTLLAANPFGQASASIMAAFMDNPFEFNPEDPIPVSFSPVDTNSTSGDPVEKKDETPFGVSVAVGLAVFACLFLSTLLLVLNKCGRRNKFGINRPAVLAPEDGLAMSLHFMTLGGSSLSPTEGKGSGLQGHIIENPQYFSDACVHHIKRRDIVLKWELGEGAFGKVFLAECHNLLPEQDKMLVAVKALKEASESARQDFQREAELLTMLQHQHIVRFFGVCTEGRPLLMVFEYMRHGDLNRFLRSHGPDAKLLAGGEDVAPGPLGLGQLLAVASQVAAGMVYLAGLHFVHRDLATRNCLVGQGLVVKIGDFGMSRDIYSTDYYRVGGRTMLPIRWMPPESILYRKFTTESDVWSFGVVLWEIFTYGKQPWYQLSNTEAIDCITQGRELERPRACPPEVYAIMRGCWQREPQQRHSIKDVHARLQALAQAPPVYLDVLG
TrkA on primary rat embryonic neurons (DRG and septal cultures), sequence (P35739 33-799): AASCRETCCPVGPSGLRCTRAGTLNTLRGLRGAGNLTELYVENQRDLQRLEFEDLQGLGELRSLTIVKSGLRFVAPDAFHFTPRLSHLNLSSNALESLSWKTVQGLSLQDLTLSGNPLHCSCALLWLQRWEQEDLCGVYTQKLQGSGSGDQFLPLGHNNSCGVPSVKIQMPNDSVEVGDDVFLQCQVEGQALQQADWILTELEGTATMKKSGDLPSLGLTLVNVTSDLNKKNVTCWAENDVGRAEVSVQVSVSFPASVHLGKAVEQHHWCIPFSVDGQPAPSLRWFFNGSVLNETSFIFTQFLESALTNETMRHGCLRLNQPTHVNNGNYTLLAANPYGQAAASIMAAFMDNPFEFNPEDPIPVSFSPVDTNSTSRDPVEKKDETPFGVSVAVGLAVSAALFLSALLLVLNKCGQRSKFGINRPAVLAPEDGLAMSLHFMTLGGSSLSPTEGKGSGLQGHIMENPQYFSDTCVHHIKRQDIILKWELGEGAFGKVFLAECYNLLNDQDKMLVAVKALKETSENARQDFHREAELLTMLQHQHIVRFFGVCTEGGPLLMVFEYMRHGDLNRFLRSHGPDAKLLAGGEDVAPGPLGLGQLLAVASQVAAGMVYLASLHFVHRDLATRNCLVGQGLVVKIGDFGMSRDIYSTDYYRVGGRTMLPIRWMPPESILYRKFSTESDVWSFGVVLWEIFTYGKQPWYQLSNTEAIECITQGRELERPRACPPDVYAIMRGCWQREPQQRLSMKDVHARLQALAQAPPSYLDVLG
T1 sequence (Q16288 32-839): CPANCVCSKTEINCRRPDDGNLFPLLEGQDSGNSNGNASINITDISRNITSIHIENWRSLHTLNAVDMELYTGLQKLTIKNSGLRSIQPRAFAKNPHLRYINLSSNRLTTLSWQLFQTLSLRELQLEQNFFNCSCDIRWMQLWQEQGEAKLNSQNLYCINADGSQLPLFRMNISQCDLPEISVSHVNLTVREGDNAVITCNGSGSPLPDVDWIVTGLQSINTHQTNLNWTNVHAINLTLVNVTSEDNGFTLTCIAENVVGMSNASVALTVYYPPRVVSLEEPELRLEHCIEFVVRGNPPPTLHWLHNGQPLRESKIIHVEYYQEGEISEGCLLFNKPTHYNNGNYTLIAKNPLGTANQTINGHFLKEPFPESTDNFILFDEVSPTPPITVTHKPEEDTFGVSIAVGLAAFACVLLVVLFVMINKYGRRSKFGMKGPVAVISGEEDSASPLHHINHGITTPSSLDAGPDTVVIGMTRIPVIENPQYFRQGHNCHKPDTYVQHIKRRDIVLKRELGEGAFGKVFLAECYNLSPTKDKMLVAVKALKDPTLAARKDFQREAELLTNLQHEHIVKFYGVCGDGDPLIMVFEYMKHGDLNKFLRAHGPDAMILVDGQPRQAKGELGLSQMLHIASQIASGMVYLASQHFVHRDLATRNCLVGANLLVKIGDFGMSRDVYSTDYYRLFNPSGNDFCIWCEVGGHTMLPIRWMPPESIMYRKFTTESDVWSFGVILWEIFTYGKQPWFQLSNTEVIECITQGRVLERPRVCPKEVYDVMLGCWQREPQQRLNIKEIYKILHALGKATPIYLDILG

fold fluorescence over control peptide-biotin [1]: 4 fold
MCF [2]: 10 MCF
MCF [3]: 53 MCF
Molecule: D3-biotin (biotin derivative of D3) (peptide)

Molecule: NGF: neurotrophin nerve growth factor, natural ligand of TrkA
% Protection ([4]; NGF 20 pM): 9 ± 1%
Optical Density ([4]; NGF 20 pM): 316 ± 11
% Protection ([4]; NGF 500 pM): 68 ± 3%
Optical Density ([4]; NGF 500 pM): 535 ± 19
Optical Density ([4]; NGF 1 nM): 823 ± 28
% Protection ([4]; NGF 1 nM, relative to 1 nM NGF): 100 ± 4%
ChAT Activity (septal neuronal cultures; 10 pM NGF): 0.42 ± 0.07 pmol Ach/min/well
ChAT Activity (septal neuronal cultures; 400 pM NGF): 0.72 ± 0.10 pmol Ach/min/well
NIH-TrkC % Protection ([5]; 10 pM NGF): 2 ± 4%
NIH-TrkC % Protection ([5]; 1 nM NGF): 5 ± 6%
NIH wt % Protection ([6]; 10 pM NGF): 5 ± 7% and 3 ± 5%
NIH wt % Protection ([6]; 1 nM NGF): 5 ± 12% and 4 ± 6%
protection from apoptosis (B104 cells): neither D3 nor NGF protected
protection from apoptosis (wild type HEK293 cells): neither D3 nor NGF protected
protection from apoptosis [7]: neither D3 nor NGF protected
biological activity in trophic assays after enzymatic treatment [8]: lost all activity within minutes

% Protection (MTT, 4-3.6 cells), 10 µM D3 [9]: 8%
% Protection (MTT, 4-3.6 cells), 10 µM D3 + 10 pM NGF [9]: 55%
% Protection (MTT, NIH-TrkA), 10 µM D3 [9]: 8%
% Protection (MTT, NIH-TrkA), 10 µM D3 + 10 pM NGF [9]: 51%
intensity of the Mr 300 kDa band (putative TrkA·TrkA dimers) after cross-linking, standardized to 1 nM NGF (100%), 10 pM NGF + 10 µM D3 [9]: 77%
intensity of the Mr 300 kDa band (putative TrkA·TrkA dimers) after cross-linking, standardized to 1 nM NGF (100%), 10 µM D3 alone [9]: 21%
ChAT Fold Increase, 0.2 µM D3 [10]: 1.23 fold
ChAT Fold Increase, 0.2 µM D3 + 10 pM NGF [10]: 2 fold
ChAT Fold Increase, 2 µM D3 [10]: 1.47 fold
ChAT Fold Increase, 2 µM D3 + 10 pM NGF [10]: 2.53 fold
ChAT Fold Increase, 20 µM D3 [10]: 1.56 fold
ChAT Fold Increase, 20 µM D3 + 10 pM NGF [10]: 2.63 fold
% Maximal binding of mAb 5C3 [11]: 80%
% Maximal binding of mAb 5C3 [12]: 53%
Kd [13]: 2000 nM
% Maximal binding of mAb 5C3 [14]: 33%
% Maximal binding of mAb 5C3 [15]: 95%
% Maximal binding of mAb MC192 [16]: 101%
Kd [17]: 2000 nM
% Binding of mAb 5C3 [18]: 64%
% Binding of mAb 5C3 [19]: 43%
% Binding of mAb 5C3 [20]: 38%
% Binding of mAb 5C3 [21]: 31%
% Binding of mAb 5C3 [22]: 89%
% Binding of mAb 5C3 [23]: 100%
MCF of D3-biotin in the presence of competitor D3 [24]: 11 MCF
MCF of D3-biotin in the presence of competitor D3 [25]: 17 MCF
Molecule: {5‑nitrobenzoyl}-EK[hSer]G-OH (bridge N-3) [D3 (EKHse-G-OH), β-turn peptidomimetic cyclic compound]
Optical Density (MTT survival, 4-3.6 cells), 10 µM D3 [9]: 95 OD
Optical Density (MTT survival, 4-3.6 cells), 10 µM D3 + 10 pM NGF [9]: 255 OD

— patent US6881719B2, “β-turn peptidomimetic cyclic compounds” (McGill University, priority 2000, dated 2005)
